Legend:
[1] = target: Myc-GST融合蛋白(Myc标签与谷胱甘肽融合的蛋白); assay: indirect ELISA, Myc-GST coated at 5 μg/mL, HRP anti-His secondary antibody; heat test at 70℃ for 30 min
[2] = target: Myc-GST融合蛋白(Myc标签与谷胱甘肽融合的蛋白); assay: indirect ELISA, Myc-GST coated at 5 μg/mL, HRP anti-His secondary antibody; heat test at 80℃ for 30 min
[3] = target: Myc-GST融合蛋白(Myc标签与谷胱甘肽融合的蛋白); assay: indirect ELISA, Myc-GST coated at 5 μg/mL, HRP anti-His secondary antibody; heat test at 90℃ for 30 min

OD450 [1]: 1.5 OD450 | OD450 [2]: 1.4 OD450 | OD450 [3]: 1.2 OD450
B1: 抗c-Myc标签单域重链抗体 (VHH, not shown: small tags and cut ends)
VHH: QLQLVESGGGLVQPGESLTLTCVASGGTLENWDIAWFRQAPGKEREGVAYFSSDGIRNYGDSMRGRFKISRDNAKNTAWLQMNRLSVEDTSTYYCAAKERVGRAWRNDGLYRYWGQGTQVTVSS
